Laboratory results reported in patent US20090075291A1, “PEPTIDE-BASED REGULATION OF GAP JUNCTIONS” (The Research Foundation of State University of New York, priority 2006, published 2009).

Experiments:
Cx43CT [1] = molecular target: T1, Cx43CT (Rattus norvegicus, UniProt P08050); experiment: Surface Plasmon Resonance (SPR) binding of synthetic peptides to immobilised recombinant Cx43CT
T1 construct: GST (N, cleaved yes); made in house; host or cells: E. coli BL-21
Text: Recombinant Cx43CT was produced as described in Duffy et al., “pH-Dependent Intramolecular Binding and Structure Involving Cx43 Cytoplasmic Domains,” J. Biol. Chem. 277(39):36706-36714 (2002), which is hereby incorporated by reference in its entirety. Briefly, cDNA derived from rat Cx43 was inserted into pGEX-6P-2 (Amersham) and expressed in E. coli (BL-21). The resultant GST-fusion protein was cleaved from the GST PreScission Protease® (Amersham Biosciences). The recombinant product after cleavage contained the sequence 255-382 of rCx43 preceded by four additional amino acids (GPLG). Protein concentration was measured using the Bio-Rad DC Protein Assay. Protein purity was assessed by SDS-PAGE.
Recombinant Cx43CT was covalently bound to a carboxylmethyl dextran matrix (Salamon et al., “Surface Plasmon Resonance Spectroscopy as a Tool for Investigating the Biochemical and Biophysical Properties of Membrane Protein Systems. II: Applications to Biological Systems,” Biochim. Biophys. Acta 1331(2):131-152 (1997), which is hereby incorporated by reference in its entirety). Specific peptides were presented and, when feasible, dissociation constants (KD) were calculated from the time course of binding and unbinding of the ligand, using a 1:1 (Langmuir) association and dissociation kinetic model (Biacore software package). In both phases (association and dissociation), the first 5-8 seconds of recording were not included in the fit, to avoid artifacts resulting from peptide distribution within the flow cells (Lang et al., “Surface Plasmon Resonance as a Method to Study the Kinetics and Amplitude of Protein-protein Binding,” in PRACTICAL METHODS IN CARDIOVASCULAR RESEARCH 936-947 (Stefan Dhein, Friedrich Wilhelm Mohr & Mario Delmar eds., 2005), which is hereby incorporated by reference in its entirety).
Phage display allows for the rapid screening of thousands of peptides, but the characteristics of binding cannot be properly defined. Furthermore, the peptides are part of a capsid protein, which may affect the ability of the peptide to properly interact with the target protein. Therefore, some of the peptides identified by the phage screening were selected to, using SPR, further characterize their ability to bind Cx43CT. Recombinant Cx43CT was covalently bound to a carboxymethyl dextran matrix and synthetic peptides presented for binding. A total of six 12-mer peptides from the non-biased screening (peptides labeled RXP1 to RXP6 in Table 1) and 5 peptides from the biased screening (labeled RXP-A to RXP-E in Table 3) were tested. […] Peptide RXP4 (SEQ ID NO:15) caused the largest deflection in SPR signal. RXP4 (250 μM) was added at time “zero.” Washout was initiated after two minutes of exposure. […] Higher concentrations of the peptide were tested but an asymptotic maximum response could not be detected. In addition, dissociation rates were too fast to reliably use them to calculate the kinetics of binding.
A different result emerged from the testing of the doublets. […] The transitions were well-fit by exponential functions and the rates of association and dissociation were used as described in Example 4 to estimate the kinetic parameters. A full range of concentrations was tested in three separate occasions and at two different pHs of the solvent (6.5 and 7.4). […] Adhes. 8(4-6):219-223 (2001), which is hereby incorporated by reference in its entirety), and that measured for the binding of Aquaporin-0 to Cx45.6 (Yin et al., “The Development-associated Cleavage of Lens Connexin 45.6 by Caspase-3-like Protease is Regulated by Casein Kinase II-mediated Phosphorylation,” J. Biol. Chem. 276(37):34567-34572 (2001), which is hereby incorporated by reference in its entirety).
The peptides were tested for binding to the carboxyl terminal domain of Cx43 using Surface Plasmon Resonance (“SPR”). […]

Cx43CT [2] = molecular target: T1, Cx43CT; experiment: Biased (XXXXRXPXXXX) phage display screening against Cx43CT; format: binding; settings: for Total Frequency (%): all three runs, 402 inserts sequenced; for Frequency Run 2(%) / Frequency Run 1 (%): binding step at pH 6.5; for Frequency Run 2(%): 119 inserts sequenced; for Frequency Run 1 (%): 120 inserts sequenced; for Frequency Run 3 (%): binding step at pH 7.4, 163 inserts sequenced
Experimental: A “library” of bacteriophage, displaying ˜[…] of 2.7×10^9 random 12-mer peptides (Ph.D.-12™ Phage display peptide library kit; New England BioLabs Inc.) was utilized. Wells in 24-well plates were coated with 15 μg of recombinant CT and blocked with 5 mg/ml BSA. After removing the unbound viruses by washing with Tris buffered saline containing 0.5% tween-20 (TBS-T), low affinity binders were eluted with a solution of TBS-containing Cx43CT at a concentration of 100 μg/ml. High affinity binders were recovered by overlaying the well with a culture of E. coli, to allow the tightly bound phage to infect the bacteria. This culture was amplified and the virus was precipitated with PEG. The amplified product was used for the subsequent round of panning. All steps were conducted at pH 6.5 unless otherwise indicated.
After three rounds of selection and amplification, the phage recovered from the last round of binding were grown on a lawn of E. coli for plaque purification. Each plaque, representing a single clone, was picked and amplified. The phage were isolated and analyzed by DNA sequencing.
The Ph.D. Peptide Display Cloning System (New England BioLabs Inc.) was used to create a biased phage display library of sequence XXXXRXPXXXX, where X is any amino acid flanking an arginine and a proline with an additional random residue at the center. The randomized peptides were followed by a Gly-Gly-Gly-Ser (SEQ ID NO:2) spacer. The library was cloned into M13 phage. These phage were analyzed for titer and sequence prior to screening for Cx43CT binding as described above.
The RXP motif was not detected in phage that bound to streptavidin. The motif occurred in different positions within the 12-mer peptide, thus preventing proper alignments to determine the frequency of other amino acids at specific positions relative to the RXP. To overcome this limitation and to search for peptides with higher binding affinity (see Example 10), a biased phage display library was generated where the RXP motif was forced to the center of the sequence, flanked at each side by 4 randomized amino acids. Sixty clones containing an insert (out of an estimated 3-4×10^4 total clones in the library) were chosen at random for sequencing prior to exposure of the library to Cx43CT. All inserts coded for an 11-mer peptide with the RXP motif in the appropriate location. In three independent runs, the same library was presented to Cx43CT. The binding step was carried out at pH 6.5 in two of the runs (run 1 and 2) and at pH 7.4 in one additional run (run 3). The total number of phage plaques containing a full coding insert that were recovered after the binding step were 120, 119 and 163 for runs 1, 2 and 3, respectively. […] These inserts may be consequent to incomplete restriction enzyme digestion as well as possible residual activity of the Klenow polymerase used in second strand production. The combination of these two factors would result in blunt ends that subsequently ligated. […] Furthermore, five specific peptides were recovered from all three runs and represented a large fraction of the repeats observed within the same run (see Table 2).

T1 sequence (P08050 255-382): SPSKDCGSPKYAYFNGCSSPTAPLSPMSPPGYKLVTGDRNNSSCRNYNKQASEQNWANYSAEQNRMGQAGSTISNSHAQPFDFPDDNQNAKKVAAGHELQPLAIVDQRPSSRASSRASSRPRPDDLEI

## AcRRKP-NH2 (Ac-RRKP-NH2) [Peptide 2504]
Cx43CT [1]; peptide concentration 1.0 mM
  Response (SPR amplitude): 46.5 arbitrary units

## DVPGRDPGYIKGGGSAHARVPFYSHSLNRNRKPSLYQ (RXP-containing peptide) [RXP-A]
Cx43CT [2]
  Total Frequency (%): 40%
  Frequency Run 2(%): 64.7%
  Frequency Run 1 (%): 20.8%
  Frequency Run 3 (%): 36.2%

## AcRNP-NH2 (Ac-Arg-Asn-Pro-NH2) [Peptide 2502, small RXP peptide]
Cx43CT [1]; peptide concentration 1.0 mM
  Response (SPR amplitude): 4.6 arbitrary units

## AcRNPRNP-NH2 (Ac-RNPRNP-NH2) [Peptide 2501]
Cx43CT [1]; peptide concentration 500 μM
  Response (SPR amplitude): 14.4 arbitrary units
Cx43CT [1]; peptide concentration 1.0 mM
  Response (SPR amplitude): 24.8 arbitrary units

## EIQPRSPLMFSGGGSAHARVPFYSHSAKEARWPRAHR (RXP-containing peptide) [RXP-B]
Cx43CT [2]
  Total Frequency (%): 8.2%
  Frequency Run 2(%): 2.5%
  Frequency Run 1 (%): 6.7%
  Frequency Run 3 (%): 13.5%

## AcRRKPRRKP-NH2 (Ac-RRKPRRKP-NH2) [Peptide 2503]
Cx43CT [1]; peptide concentration 25 μM
  Response (SPR amplitude): 27.5 arbitrary units
Cx43CT [1]; peptide concentration 100 μM
  Response (SPR amplitude): 80.6 arbitrary units
Cx43CT [1]; peptide concentration 250 μM
  Response (SPR amplitude): 147.0 arbitrary units
Cx43CT [1]; peptide concentration 500 μM
  Response (SPR amplitude): 214.8 arbitrary units
Cx43CT [1]; peptide concentration 1.0 mM
  Response (SPR amplitude): 294.7 arbitrary units

## GIAAREPNSHDGGGSAHARVPFYSHSRDLWRKPAKSL (RXP-containing peptide)
Cx43CT [2]
  Total Frequency (%): 15.2%
  Frequency Run 2(%): 11.8%
  Frequency Run 1 (%): 12.5%
  Frequency Run 3 (%): 19.6%

## WEEPRRPFTMSGGGSAETHARVPFYSHSPMRHRLPGVHL (RXP-containing peptide) [RXP-D]
Cx43CT [2]
  Total Frequency (%): 6%
  Frequency Run 2(%): 0.8%
  Frequency Run 1 (%): 16.7%
  Frequency Run 3 (%): 1.8%

## AcRRNP-NH2 (Ac-RRNP-NH2) [Peptide 2505]
Cx43CT [1]; peptide concentration 1.0 mM
  Response (SPR amplitude): 34.9 arbitrary units
